Assay results as given in paper PMC10250219.
Like-named read-outs stand apart in the source and are kept apart here.

Columns and labels:
Assay in all cases: EMSA
OGG1 WT (untagged) [1] = target: T1, OGG1 WT (untagged) (human, UniProt O15527 1-345)
OGG1-Y203A (untagged) = OGG1-Y203A (untagged) (human, UniProt O15527 1-345, Y203A)
OGG1-2NA (untagged) [2] = target: T2, OGG1-2NA (untagged) (human, UniProt O15527 1-345, N149A;N150A)
GST-OGG1-G245A = GST-OGG1-G245A (human, UniProt O15527 1-345, G245A)
OGG1 WT (untagged) [3] = target: T1, OGG1 WT (untagged); remark: listed apart in the source
OGG1-2NA (untagged) [4] = target: T2, OGG1-2NA (untagged); remark: listed apart in the source

Chain of GST-OGG1-G245A (O15527 whole entry G245A): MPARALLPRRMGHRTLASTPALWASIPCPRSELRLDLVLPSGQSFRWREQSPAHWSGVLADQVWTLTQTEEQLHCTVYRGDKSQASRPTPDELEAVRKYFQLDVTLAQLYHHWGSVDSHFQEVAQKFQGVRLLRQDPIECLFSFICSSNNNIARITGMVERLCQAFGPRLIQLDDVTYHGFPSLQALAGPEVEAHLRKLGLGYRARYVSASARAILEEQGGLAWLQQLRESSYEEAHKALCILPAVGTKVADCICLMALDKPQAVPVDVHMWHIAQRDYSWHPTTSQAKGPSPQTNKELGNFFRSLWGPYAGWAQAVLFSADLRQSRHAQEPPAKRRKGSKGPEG
T1 sequence (O15527 whole entry): as the sequence (O15527 whole entry G245A) above, with A245G counted along it
T2 sequence (O15527 whole entry N149A/N150A): as the sequence (O15527 whole entry G245A) above, with N149A, N150A, A245G counted along it
Chain of OGG1-Y203A (untagged) (O15527 whole entry Y203A): as the sequence (O15527 whole entry G245A) above, with Y203A, A245G counted along it

B1: 24-mer G:C duplex (dsDNA)
DNA 1: CTGATCGATGACGCCTGACATGAT
DNA 2: ATCATGTCAGGCGTCATCGATCAG
Kd (OGG1 WT (untagged) [1]): 2220 ± 220 nM
Kd (OGG1-Y203A (untagged)): 1970 ± 270 nM
Kd (OGG1-2NA (untagged) [2]): 602 ± 42 nM

B2: Cy5 34-mer 8-oxoG:C duplex (dsDNA)
DNA 1: GGCTTCATCGTTGTCGCAGACCTGGTGGATACCG
DNA 2: CGGTATCCACCAGGTCTGCGACAACGATGAAGCC
modifications: 8-oxoG at position 16 of strand 1 (opposite C)
binding result (GST-OGG1-G245A): no binding

B3: Cy5 34-mer G:C duplex (dsDNA)
DNA 1: GGCTTCATCGTTGTCGCAGACCTGGTGGATACCG
DNA 2: CGGTATCCACCAGGTCTGCGACAACGATGAAGCC
binding result (GST-OGG1-G245A): no binding

B4: 24-mer 8-oxoG:C duplex (dsDNA)
DNA 1: CTGATCGATGACGCCTGACATGAT
DNA 2: ATCATGTCAGGCGTCATCGATCAG
modifications: 8-oxoG at position 13 of strand 1 (opposite C)
Kd (OGG1 WT (untagged) [3]): 0.42 ± 0.03 nM
Kd (OGG1-2NA (untagged) [4]): 6.37 ± 0.58 nM
